Laboratory results from paper PMC3255974.

Experiment: parallel wall flow chamber, 293T α4β7 transfectants
Details: glycan lost; control: wild type

B1: integrin β7 subunit: N260A (protein)
parent chain: MVALPMVLVLLLVLSRGESELDAKIPSTGDATEWRNPHLSMLGSCQPAPSCQKCILSHPSCAWCKQLNFTASGEAEARRCARREELLARGCPLEELEEPRGQQEVLQDQPLSQGARGEGATQLAPQRVRVTLRPGEPQQLQVRFLRAEGYPVDLYYLMDLSYSMKDDLERVRQLGHALLVRLQEVTHSVRIGFGSFVDKTVLPFVSTVPSKLRHPCPTRLERCQSPFSFHHVLSLTGDAQAFEREVGRQSVSGNLDSPEGGFDAILQAALCQEQIGWRNVSRLLVFTSDDTFHTAGDGKLGGIFMPSDGHCHLDSNGLYSRSTEFDYPSVGQVAQALSAANIQPIFAVTSAALPVYQELSKLIPKSAVGELSEDSSNVVQLIMDAYNSLSSTVTLEHSSLPPGVHISYESQCEGPEKREGKAEDRGQCNHVRINQTVTFWVSLQATHCLPEPHLLRLRALGFSEELIVELHTLCDCNCSDTQPQAPHCSDGQGHLQCGVCSCAPGRLGRLCECSVAELSSPDLESGCRAPNGTGPLCSGKGHCQCGRCSCSGQSSGHLCECDDASCERHEGILCGGFGRCQCGVCHCHANRTGRACECSGDMDSCISPEGGLCSGHGRCKCNRCQCLDGYYGALCDQCPGCKTPCERHRDCAECGAFRTGPLATNCSTACAHTNVTLALAPILDDGWCKERTLDNQLFFFLVEDDARGTVVLRVRPQEKGADHTQAIVLGCVGGIVAVGLGLVLAYRLSVEIYDRREYSRFEKEQQQLNWKQDSNPLYKSAITTTINPRFQEADSPTL
For B1, the “other: rolling cell adhesion in shear flow” value was “increases”.
